According to article PMC11555707, “Histone deacetylase 7 activates 6-phosphogluconate dehydrogenase via an enzyme-independent mechanism that involves the N-terminal protein-protein interaction domain” (Biochemical Journal, 2024):

Target: the molecule itself
Test: cross-linking; lysates of transfected HEK293 cells (50 mM HEPES, 150 mM NaCl, 0.5% Triton X-100) incubated with 2 mM disuccinimidyl suberate (DSS) for 30 min at room temperature, quenched with 50 mM Tris-HCl; immunoblot with anti-Flag; 6PGD alone or with HDAC7, N-HDAC7, C-HDAC7 or SOX7

B1: 6-phosphogluconate dehydrogenase (6PGD), Flag-tagged (enzyme, mouse, UniProt Q9DCD0 1-483, looked up)
chain: MAQADIALIGLAVMGQNLILNMNDHGFVVCAFNRTVSKVDDFLANEAKGTKVVGAQSLKDMVSKLKKPRRVILLVKAGQAVDDFIEKLVPLLDTGDIIIDGGNSEYRDTTRRCRDLKAKGILFVGSGVSGGEEGARYGPSLMPGGNKEAWPHIKAIFQAIAAKVGTGEPCCDWVGDEGAGHFVKMVHNGIEYGDMQLICEAYHLMKDVLGMRHEEMAQAFEEWNKTELDSFLIEITANILKYRDTDGKELLPKIRDSAGQKGTGKWTAISALEYGMPVTLIGEAVFARCLSSLKEERVQASQKLKGPKVVQLEGSKKSFLEDIRKALYASKIISYAQGFMLLRQAATEFGWTLNYGGIALMWRGGCIIRSVFLGKIKDAFERNPELQNLLLDDFFKSAVDNCQDSWRRVISTGVQAGIPMPCFTTALSFYDGYRHEMLPANLIQAQRDYFGAHTYELLTKPGEFIHTNWTGHGGSVSSSSYNA
notes: mouse 6-phosphogluconate dehydrogenase (6PGD); A shorter ~40 kDa form (6PGD-s), also detected by anti-Flag, arises in the same cells; also called full-length 6PGD; source: HEK293, transfected (pCMV-based construct), in lysate
- stoichiometry N: 2
